Laboratory results from the supplement of paper PMC10724198.
± gives the standard deviation of the averaged measurements.

System: Saccharomyces cerevisiae
Assay: protein stability index of tFT-peptide fusion (C-terminal peptide) (PSI (0-1 scale)); higher = more stable (slower turnover)
Settings: temperature: 30 C
Method: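 MPS profiling in S. cerevisiae of the yeast C-terminome library: the last 12 aa of each annotated ORF are fused to the C-terminus of a sfGFP-mCherry timer, after a GGGS linker. Cells are FACS-sorted into 8 mCherry/sfGFP bins and deep-sequenced. PSI runs from 0 (unstable) to 1 (stable); wild type and das1Δ backgrounds, two technical replicates each.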

[1] = genetic background: das1 deletion

Row | Sequence | protein stability index [1] | protein stability index (genetic background: wild type)
1 | MIDELDYNINFA [UGA3 C-terminal 12 aa] | 0.7 ± 0.013 | 0.791 ± 0.076
2 | MILKVSLECAVS [YDL009C C-terminal 12 aa] | 0.468 ± 0.0021 | 0.481 ± 0.016
3 | MKKPRKSKKAAN [KRE33 C-terminal 12 aa] | 0.716 ± 0.018 | 0.714 ± 0.039
4 | MKTRLERERGLV [PTC4 C-terminal 12 aa] | 0.694 ± 0.027 | 0.638 ± 0.019
5 | MMAVDTDVDMDA [YPL071C C-terminal 12 aa] | 0.668 ± 0.012 | 0.673 ± 0.014
6 | MMTRENMDMGER [RRP3 C-terminal 12 aa] | 0.669 ± 0.044 | 0.649 ± 0.027
7 | MNAAENEVKKEK [SUR2 C-terminal 12 aa] | 0.688 ± 0.016 | 0.669 ± 0.027
8 | MNGIPREAFVQF [MEX67 C-terminal 12 aa] | 0.68 ± 0.0078 | 0.701 ± 0.022
9 | MSNSNSVCCTLM [STE18 C-terminal 12 aa] | 0.736 ± 0.01 | 0.7027 ± 0.0034
10 | MSSTDWVTKPTY [AFG1 C-terminal 12 aa] | 0.6977 ± 0.0026 | 0.678 ± 0.017
11 | MTKISILKPFLH [CDC6 C-terminal 12 aa] | 0.711 ± 0.0076 | 0.6156 ± 0.0052
12 | MYSSKDNPASPK [TAF1 C-terminal 12 aa] | 0.693 ± 0.021 | 0.674 ± 0.017
13 | NAEKAAGQKKED [YLL053C C-terminal 12 aa] | 0.695 ± 0.034 | 0.658 ± 0.018
14 | NAIEEELAKMKL [THR4 C-terminal 12 aa] | 0.6922 ± 0.0025 | 0.692 ± 0.035
15 | NDTIKLNQSIYS [ASK10 C-terminal 12 aa] | 0.701 ± 0.02 | 0.7048 ± 0.0015
16 | NEALVKTTKQKL [LPX1 C-terminal 12 aa] | 0.703 ± 0.013 | 0.704 ± 0.018
17 | NEEMAEISNPFR [FEN2 C-terminal 12 aa] | 0.699 ± 0.019 | 0.711 ± 0.026
18 | NEEMIRKLKAAK [JID1 C-terminal 12 aa] | 0.674 ± 0.015 | 0.662 ± 0.021
19 | NEPTNSDIVELD [UBA2 C-terminal 12 aa] | 0.693 ± 0.023 | 0.676 ± 0.019
20 | NFKNSSAKSKRS [PKH2 C-terminal 12 aa] | 0.682 ± 0.014 | 0.695 ± 0.0083
21 | NFLNLLSPLPSV [TOM7 C-terminal 12 aa] | 0.72262 ± 0.00027 | 0.6951 ± 0.0031

Row | Sequence | protein stability index [1] | protein stability index (genetic background: wild type)
22 | NGTAKSAQSTTV [YAR019W-A C-terminal 12 aa] | 0.67513 ± 0.00026 | 0.729 ± 0.016
23 | NGWHELALPQSR [SWM1 C-terminal 12 aa] | 0.74 ± 0.0028 | 0.705 ± 0.021
24 | NIATIASERSRP [YPL102C C-terminal 12 aa] | 0.723 ± 0.046 | 0.683 ± 0.007
25 | NIIGLLSNDEEH [CBP2 C-terminal 12 aa] | 0.6944 ± 0.0063 | 0.6869 ± 0.0018
26 | NKDTMQLFRAYL [CIN2 C-terminal 12 aa] | 0.7695 ± 0.0014 | 0.834 ± 0.04
27 | NKPKGPLRKRRT [TWF1 C-terminal 12 aa] | 0.7 ± 0.017 | 0.672 ± 0.011
28 | NKREFIDSLRPH [AIM20 C-terminal 12 aa] | 0.71 ± 0.013 | 0.6774 ± 0.0032
29 | NLDGQIHYLQRL [GAL7 C-terminal 12 aa] | 0.706 ± 0.012 | 0.761 ± 0.091
30 | NMVNFESEKVNR [YVH1 C-terminal 12 aa] | 0.706 ± 0.02 | 0.662 ± 0.012
31 | NNDILQNKKLHQ [KIP1 C-terminal 12 aa] | 0.686 ± 0.034 | 0.712 ± 0.053
32 | NNLHLPGNTGFF [PDC2 C-terminal 12 aa] | 0.728 ± 0.0081 | 0.712 ± 0.043
33 | NPEATTKPKPRL [PTC5 C-terminal 12 aa] | 0.752 ± 0.0099 | 0.81 ± 0.049
34 | NPNSLPLQPIAN [MSC2 C-terminal 12 aa] | 0.704 ± 0.018 | 0.691 ± 0.015
35 | NRVPKWMKLSKK [UBX4 C-terminal 12 aa] | 0.676 ± 0.012 | 0.679 ± 0.027
36 | NRVVLVDHNSSS [IRS4 C-terminal 12 aa] | 0.72 ± 0.024 | 0.727 ± 0.069
37 | NSDTIARIATVM [DAS1 C-terminal 12 aa] | 0.685 ± 0.011 | 0.595 ± 0.0036
38 | NSIISLEALDAI [SMX2 C-terminal 12 aa] | 0.72 ± 0.039 | 0.708 ± 0.022
39 | NSNELEYAPTAN [LIA1 C-terminal 12 aa] | 0.686 ± 0.022 | 0.7 ± 0.11
40 | NTESSCGFFQWV [APN2 C-terminal 12 aa] | 0.72737 ± 0.00023 | 0.737 ± 0.02
41 | NTFRKIKGDKKN [MDJ1 C-terminal 12 aa] | 0.687 ± 0.068 | 0.758 ± 0.0081
42 | NTFVLNMSRFII [YDL068W C-terminal 12 aa] | 0.6739 ± 0.003 | 0.365 ± 0.079

Row | Sequence | protein stability index [1] | protein stability index (genetic background: wild type)
43 | NTHDLHLRPGTY [YBL005W-A C-terminal 12 aa] | 0.6794 ± 0.00083 | 0.708 ± 0.013
44 | NTTHYNASLLRQ [PHO5 C-terminal 12 aa] | 0.688 ± 0.022 | 0.673 ± 0.017
45 | NTVELLNIPLTS [YLR345W C-terminal 12 aa] | 0.6555 ± 0.0055 | 0.649 ± 0.0043
46 | PAAIKQAIASNV [TRX2 C-terminal 12 aa] | 0.659 ± 0.0072 | 0.657 ± 0.0098
47 | PAAKKVVELTQN [LSC2 C-terminal 12 aa] | 0.685 ± 0.012 | 0.58 ± 0.019
48 | PDCTVCSNSNSN [UBA3 C-terminal 12 aa] | 0.705 ± 0.0088 | 0.677 ± 0.047
49 | PEGEAPEAFSMK [SEC14 C-terminal 12 aa] | 0.7068 ± 0.0023 | 0.684 ± 0.036
50 | PEGGDGPKYTLT [CIR2 C-terminal 12 aa] | 0.688 ± 0.018 | 0.721 ± 0.016
51 | PEKWSASLKKFK [THI6 C-terminal 12 aa] | 0.731 ± 0.017 | 0.6854 ± 0.0031
52 | PEMDKEKKKFYL [RPF1 C-terminal 12 aa] | 0.724 ± 0.04 | 0.708 ± 0.06
53 | PEVIDTRKDNSN [COX11 C-terminal 12 aa] | 0.687 ± 0.012 | 0.696 ± 0.022
54 | PFGKKKTGLFSL [PRM10 C-terminal 12 aa] | 0.723 ± 0.036 | 0.717 ± 0.03
55 | PGDTLIEVIDLT [WSS1 C-terminal 12 aa] | 0.692 ± 0.025 | 0.7105 ± 0.00019
56 | PGLRRQHTRNFL [YMR294W-A C-terminal 12 aa] | 0.697 ± 0.01 | 0.737 ± 0.042
57 | PHVKLFETTSGL [IRC5 C-terminal 12 aa] | 0.718 ± 0.021 | 0.712 ± 0.014
58 | PKGDIEASIAEE [MPH3 C-terminal 12 aa] | 0.6877 ± 0.00033 | 0.677 ± 0.016
59 | PKWCSTMCSTAT [YDR445C C-terminal 12 aa] | 0.69 ± 0.03 | 0.743 ± 0.049
60 | PLCYWHYSADTY [YIL105W-A C-terminal 12 aa] | 0.7217 ± 0.0058 | 0.808 ± 0.039
61 | PLITPSGFRSSL [YNR025C C-terminal 12 aa] | 0.707 ± 0.0084 | 0.715 ± 0.025
62 | PNLSRANFTRNK [RSA1 C-terminal 12 aa] | 0.695 ± 0.019 | 0.699 ± 0.014
63 | PPFDFRLLFLLV [YGL165C C-terminal 12 aa] | 0.542 ± 0.033 | 0.269 ± 0.0091

Row | Sequence | protein stability index [1] | protein stability index (genetic background: wild type)
64 | PTVTRKTPDYFL [PPH22 C-terminal 12 aa] | 0.696 ± 0.0091 | 0.718 ± 0.089
65 | QCNFSYLESNYF [CTS1 C-terminal 12 aa] | 0.689 ± 0.019 | 0.749 ± 0.06
66 | QFDSENVILSVI [TRS120 C-terminal 12 aa] | 0.716 ± 0.023 | 0.687 ± 0.024
67 | QHDEKPFYKRMF [HXT8 C-terminal 12 aa] | 0.723 ± 0.026 | 0.666 ± 0.045
68 | QHLKTHKKHGDF [MSN4 C-terminal 12 aa] | 0.719 ± 0.0085 | 0.6983 ± 0.001
69 | QIILQKEGVLDK [KCC4 C-terminal 12 aa] | 0.704 ± 0.0035 | 0.672 ± 0.0083
70 | QKNKKRKFSDTS [RNT1 C-terminal 12 aa] | 0.696 ± 0.019 | 0.701 ± 0.018
71 | QLNLVVNGVRLN [YLR379W C-terminal 12 aa] | 0.674 ± 0.021 | 0.655 ± 0.016
72 | QMICPSLLGIRN [YHR130C C-terminal 12 aa] | 0.721 ± 0.013 | 0.6986 ± 0.0069
73 | QMRKNMTRTDEK [PKH1 C-terminal 12 aa] | 0.671 ± 0.056 | 0.714 ± 0.026
74 | QNNNILNDMRVN [SPT23 C-terminal 12 aa] | 0.669 ± 0.011 | 0.689 ± 0.039
75 | QQQQQKKESSTA [GIM5 C-terminal 12 aa] | 0.727 ± 0.0087 | 0.7 ± 0.037
76 | QRASSRPKERRK [MSB4 C-terminal 12 aa] | 0.711 ± 0.019 | 0.713 ± 0.016
77 | QRERINNYISVY [VMA6 C-terminal 12 aa] | 0.352 ± 0.02 | 0.388 ± 0.0092
78 | QRSKSKRQKRRK [YNG1 C-terminal 12 aa] | 0.705 ± 0.017 | 0.652 ± 0.036
79 | QRTRRRMSLYKL [TOS3 C-terminal 12 aa] | 0.807 ± 0.036 | 0.853 ± 0.03
80 | QRVIKPSSALQF [ECM7 C-terminal 12 aa] | 0.706 ± 0.01 | 0.682 ± 0.035
81 | QSARRQRGSIAM [SDS24 C-terminal 12 aa] | 0.683 ± 0.02 | 0.6657 ± 0.0037
82 | QSLKISKKRRRK [ZIP1 C-terminal 12 aa] | 0.734 ± 0.033 | 0.748 ± 0.086
